System: AC1254 (CCD1-BSRS1-AE713)
Sequence (chain, as listed by the source): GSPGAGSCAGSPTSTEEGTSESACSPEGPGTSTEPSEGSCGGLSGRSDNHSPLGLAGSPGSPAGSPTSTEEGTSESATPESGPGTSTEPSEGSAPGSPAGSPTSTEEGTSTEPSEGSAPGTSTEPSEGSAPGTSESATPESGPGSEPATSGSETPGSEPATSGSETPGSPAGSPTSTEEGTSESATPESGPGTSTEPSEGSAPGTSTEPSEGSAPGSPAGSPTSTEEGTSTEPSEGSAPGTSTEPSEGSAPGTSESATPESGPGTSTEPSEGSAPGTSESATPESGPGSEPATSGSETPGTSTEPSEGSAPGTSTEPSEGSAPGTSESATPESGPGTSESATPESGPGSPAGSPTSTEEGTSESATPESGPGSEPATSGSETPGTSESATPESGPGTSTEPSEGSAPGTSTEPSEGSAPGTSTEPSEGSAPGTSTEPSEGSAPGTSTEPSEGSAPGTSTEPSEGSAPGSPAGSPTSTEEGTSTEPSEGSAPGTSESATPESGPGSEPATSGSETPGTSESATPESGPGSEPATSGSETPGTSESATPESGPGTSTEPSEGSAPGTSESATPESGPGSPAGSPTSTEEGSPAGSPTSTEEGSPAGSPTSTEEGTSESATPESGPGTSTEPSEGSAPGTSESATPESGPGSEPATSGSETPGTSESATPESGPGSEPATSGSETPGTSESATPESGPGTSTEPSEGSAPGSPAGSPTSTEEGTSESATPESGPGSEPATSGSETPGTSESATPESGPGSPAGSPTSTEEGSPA

Sequence of recombinant mouse MMP-2 (chain, as listed by the source): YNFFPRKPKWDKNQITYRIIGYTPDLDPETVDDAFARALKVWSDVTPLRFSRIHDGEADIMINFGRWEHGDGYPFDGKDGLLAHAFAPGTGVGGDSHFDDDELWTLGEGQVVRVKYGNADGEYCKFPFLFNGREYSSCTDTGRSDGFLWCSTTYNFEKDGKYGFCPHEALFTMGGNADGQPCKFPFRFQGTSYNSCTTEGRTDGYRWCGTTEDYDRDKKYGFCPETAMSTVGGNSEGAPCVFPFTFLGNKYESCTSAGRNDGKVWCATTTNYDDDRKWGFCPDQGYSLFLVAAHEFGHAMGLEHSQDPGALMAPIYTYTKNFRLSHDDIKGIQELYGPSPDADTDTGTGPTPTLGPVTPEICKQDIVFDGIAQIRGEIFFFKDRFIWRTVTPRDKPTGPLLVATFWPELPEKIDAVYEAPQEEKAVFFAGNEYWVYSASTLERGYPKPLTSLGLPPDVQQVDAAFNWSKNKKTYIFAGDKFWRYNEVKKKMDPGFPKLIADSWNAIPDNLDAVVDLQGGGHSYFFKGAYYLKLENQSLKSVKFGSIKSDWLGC

| Substance | proteolytic cleavage at the PCM (SDS-PAGE, C4 RP-HPLC); enzyme:substrate 1:680, 2 h, 37 C | proteolytic cleavage at the PCM (SDS-PAGE, C4 RP-HPLC); enzyme:substrate 1:12.5, 2 h, 37 C |
| --- | --- | --- |
| recombinant mouse MMP-2 | all proteases tested here cleaved the construct as intended, with varying degree of catalytic efficiency |  |
| recombinant human u-plasminogen activator (uPA) |  | all proteases tested here cleaved the construct as intended, with varying degree of catalytic efficiency |

From patent US20180125988
